Test results taken from the supplement of paper PMC10899765.

Legend:
Conditions in all cases: 20 nM; 72 h
MCF10A [1] = experiment: percent viability (nuclei count relative to siNT); higher = more viable cells
Experimental: (§1)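 After 72 h, cells were fixed and stained with Hoechst and anti-fibrillarin, and nucleoli per nucleus were counted with CellProfiler. Values are plate-adjusted percent effect for the one-nucleolus and 5+ nucleoli phenotypes, normalised to siNT (0%) and to the positive controls siNOL11 or siKIF11 (100%), as the mean of biological triplicates. Percent viability is the nuclei count relative to siNT.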

MCF10A [2] = experiment: 5+ nucleoli phenotype percent effect (relative to siNT 0% and siKIF11 100%); higher = more cells with five or more nucleoli
Experimental: as §1

MCF10A [3] = experiment: one-nucleolus phenotype percent effect (relative to siNT 0% and siNOL11 100%); higher = more cells with one nucleolus (ribosome biogenesis inhibition)
Experimental: as §1

Sequence | percent viability (MCF10A [1]) [%] | 5+ nucleoli phenotype percent effect (MCF10A [2]) [%] | one-nucleolus phenotype percent effect (MCF10A [3]) [%]
UCAAAAUGUAGAGGAAGACCCCA [hsa-miR-4698] | 127 | 21.6 | -18.4
UCAAAUGCAGAUCCUGACUUC [hsa-miR-7853-5p] | 42.1 | 14 | -15.6
UCAAAUGCUCAGACUCCUGUGGU [hsa-miR-105-5p] | 37.7 | -18 | -6.5
UCAACAAAAUCACUGAUGCUGGA [hsa-miR-3065-5p] | 117 | 38.2 | -30.5
UCAAGAGCAAUAACGAAAAAUGU [hsa-miR-335-5p] | 79.4 | 37.7 | -9.96
UCAAGGCCAGAGGUCCCACAGCA [hsa-miR-3922-5p] | 30.9 | -12.7 | 6.44
UCAAGUAGUUUCAUGAUAAAGG [hsa-miR-5697] | 118 | 12.5 | -14.6
UCAAGUGUCAUCUGUCCCUAG [hsa-miR-6513-3p] | 126 | 42.1 | -7.47
UCAAUAAAUGUCUGUUGAAUU [hsa-miR-95-5p] | 101 | 26.3 | -26.5
UCAAUAGGAAAGAGGUGGGACCU [hsa-miR-6826-5p] | 33.3 | -20.8 | 26.5
UCAAUCACUUGGUAAUUGCUGU [hsa-miR-4705] | 53.1 | 38.7 | -19.5
UCACAAAUCUAUAAUAUGCAGG [hsa-miR-4719] | 149 | 40.1 | -19.7
UCACAACAACCUUGCAGGGUAGA [hsa-miR-5003-5p] | 80.1 | 16.9 | -10.6
UCACAAGGUAUUGACUGGCGUA [hsa-miR-4457] | 47.9 | -15.7 | 1.5
UCACAAGUCAGGCUCUUGGGAC [hsa-miR-125b-2-3p] | 37.1 | -44.2 | 59.8
UCACACCUGCCUCGCCCCCC [hsa-miR-1228-3p] | 64.7 | -13.8 | 5.12
UCACAGUGAACCGGUCUCUUU [hsa-miR-128] | 81.7 | -27.9 | 12.2
UCACAGUGGUCUCUGGGAUUAU [hsa-miR-216a-3p] | 29.5 | -17.5 | 8.32
UCACCAGCCCUGUGUUCCCUAG [hsa-miR-1226-3p] | 31.7 | -42.2 | 33.5
UCACCCUGCAUCCCGCACCCAG [hsa-miR-3620-3p] | 77 | 11.8 | -11.9

Sequence | percent viability (MCF10A [1]) [%] | 5+ nucleoli phenotype percent effect (MCF10A [2]) [%] | one-nucleolus phenotype percent effect (MCF10A [3]) [%]
UCACCUGACCUCCCAUGCCUGU [hsa-miR-3622a-3p] | 103 | 33.1 | -15.8
UCACCUGAGCUCCCGUGCCUG [hsa-miR-3622b-3p] | 107 | 29.9 | -20.9
UCACCUGGCUGGCCCGCCCAG [hsa-miR-6765-3p] | 63.1 | 30.1 | -20.5
UCACGCGGAGAGAUGGCUUUG [hsa-miR-3186-3p] | 20.7 | -13.4 | 11.3
UCACUACCUGACAAUACAGU [hsa-miR-4999-3p] | 52.7 | 0.698 | -25.2
UCACUCCUCUCCUCCCGUCUU [hsa-miR-483-3p] | 45.3 | -26.9 | 16.3
UCACUCUCACCUUGCUUUGC [hsa-miR-4639-3p] | 63 | 3.2 | -11.5
UCACUGUUCAGACAGGCGGA [hsa-miR-1208] | 112 | 20.6 | -21.6
UCAGAACAAAUGCCGGUUCCCAGA [hsa-miR-589-3p] | 115 | 5.52 | -20.8
UCAGAUGAUCUAAAGGCCUAUA [hsa-miR-1245b-3p] | 34.5 | -4.77 | 9.29
UCAGCAAACAUUUAUUGUGUGC [hsa-miR-545-3p] | 124 | 27.8 | -21.8
UCAGCACCAGGAUAUUGUUGGAG [hsa-miR-3065-3p] | 67.2 | 62.3 | -25.2
UCAGCAGGCAGGCUGGUGCAGC [hsa-miR-3619-5p] | 27.1 | -36.5 | 56.3
UCAGCAUUCAUUGGCACCAGAGA [hsa-miR-7157-5p] | 30.6 | -18.8 | 13.5
UCAGCUACUACCUCUAUUAGG [hsa-miR-5690] | 105 | 15.5 | -20.3
UCAGCUCCUCUCUACCCACAG [hsa-miR-6736-3p] | 37.4 | -12.2 | 8.25
UCAGCUGGCCCUCAUUUC [hsa-miR-1207-3p] | 15.3 | -48.5 | 65
UCAGGACACUUCUGAACUUGGA [hsa-miR-5000-3p] | 53.5 | 20.7 | -10.1
UCAGGCAAAGGGAUAUUUACAGA [hsa-miR-4742-5p] | 45.1 | 6.44 | -11.1
UCAGGCAGUGUGGGUAUCAGAU [hsa-miR-4692] | 23.4 | -11.4 | 23.2

Sequence | percent viability (MCF10A [1]) [%] | 5+ nucleoli phenotype percent effect (MCF10A [2]) [%] | one-nucleolus phenotype percent effect (MCF10A [3]) [%]
UCAGGCCAGGCACAGUGGCUCA [hsa-miR-1972] | 30.6 | 17.7 | -4.54
UCAGGCCUCUUUCUACCUU [hsa-miR-4650-5p] | 19.7 | 12.7 | -4.86
UCAGGCUCAGUCCCCUCCCGAU [hsa-miR-484] | 97 | 40.7 | -7.07
UCAGGGAGUCAGGGGAGGGC [hsa-miR-4270] | 9.71 | -37.6 | 36.8
UCAGGGUUGGUAGGGGUUGCU [hsa-miR-6823-5p] | 22.1 | -11.9 | 19.8
UCAGGUGUGGAAACUGAGGCAG [hsa-miR-3934-5p] | 42.8 | -10.9 | 10.5
UCAGUAAAUGUUUAUUAGAUGA [hsa-miR-545-5p] | 175 | 38.8 | -24.2
UCAGUCACAUAUCUAGUGUCUA [hsa-miR-4704-3p] | 54.4 | 10.1 | 5.92
UCAGUGCACUACAGAACUUUGU [hsa-miR-148a-3p] | 88.9 | 68.2 | -16.7
UCAGUGCAUCACAGAACUUUGU [hsa-miR-148b-3p] | 126 | 68.9 | -21.1
UCAGUGCAUGACAGAACUUGG [hsa-miR-152] | 145 | 69.9 | -26.4
UCAGUGUCUGGAUUUCCUAG [hsa-miR-6733-3p] | 70.7 | -16.2 | -2.06
UCAGUUCCAGGCCAACCAGGCU [hsa-miR-584-3p] | 43.9 | 3.58 | 19.6
UCAUAUUGCUUCUUUCU [hsa-miR-1279] | 187 | 35.8 | -26.6
UCAUCCCCCUCGCCCUCUCAG [hsa-miR-6729-3p] | 58.8 | 10.2 | -21.1
UCAUCCUCGUCUCCCUCCCAG [hsa-miR-5196-3p] | 44.3 | -6.21 | -13.1
UCAUUAUAUGUAUGAUCUGGAC [hsa-miR-4528] | 57.6 | -2.39 | -16.8
UCAUUUAUCUGUUGGGAAGCUA [hsa-miR-4729] | 53.1 | -14.5 | 1.2
UCAUUUUUGUGAUGUUGCAGCU [hsa-miR-153-5p] | 55 | 3.53 | -16.7
